From PMC11077072
Read-outs that look alike come from different tables or passages of the source.

B1: crRNA-A19 + A19 ssDNA target (mixed)
RNA: UAAUUUCUACUAAGUGUAGAUGACAUUUUGCUCUCAAGCUG
DNA: ATTGAACCAGCTTGAGAGCAAAATGTCTGGTAAAGGCCAA
B2: crRNA-A19 + A19 ssDNA-t target (mixed)
RNA: UAAUUUCUACUAAGUGUAGAUGACAUUUUGCUCUCAAGCUG
DNA: AACCAGCTTGAGAGCAAAATGTCTGGTAAAGGCCAA
B3: crRNA-A2 + A2 ssDNA target (mixed)
RNA: UAAUUUCUACUAAGUGUAGAUCAUGCCAAUGCGCGACAUUC
DNA: TTCTTCGGAATGTCGCGCATTGGCATGGAAGTCACACCTT
B4: crRNA-A2 + A2 ssDNA-t target (mixed)
RNA: UAAUUUCUACUAAGUGUAGAUCAUGCCAAUGCGCGACAUUC
DNA: TCGGAATGTCGCGCATTGGCATGGAAGTCACACCTT

Tests used:
[1] = target: T1, LbCas12a (Cas12a, NEB M0653T) (Lachnospiraceae bacterium, UniProt A0A5S8WF58 1-1228); experiment: activation kinetics
[2] = target: T1, LbCas12a (Cas12a, NEB M0653T); experiment: activation kinetics; remark: listed apart in the source

Row | Binder | Kd [1] [nM] | Kd [2] [nM]
1 | B1 | 0.36 ± 0.26 | 
2 | B2 | 0.3 ± 0.25 | 
3 | B3 |  | 1.1 ± 0.4
4 | B4 |  | 1.4 ± 0.7
